These results are taken from the supplement of paper PMC12042874.

± gives the uncertainty stated by the source.

The data set can be described thus: amyloid nucleation score (Sup35N fusion, yeast selection) (log enrichment); library NNK3; higher = more nucleation; inactive = no reads after selection. A digest of the protocol: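 Peptides of 20 random codons fused to Sup35N were expressed in psi-negative yeast, induced 24 hours with 100 μM copper sulfate, then grown 7 days at 30°C on medium lacking adenine and uracil. Input and output plasmid inserts were Illumina-sequenced. Nucleation score is the DiMSum log enrichment of output over input reads, centred on the mode score of non-aggregating sequences, excluding sequences with under 100 input reads. Random libraries had three technical output replicates.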
On to SILRVGKERRSGYSSGEEY, for which the amyloid nucleation score result is “inactive”. Consider MRQIAQRCRSGNAACIGSLG, for which the amyloid nucleation score worked out at 0.664 ± 0.23. In turn, VTCSYQMVLWAAFVVKCPAL gave an amyloid nucleation score of 0.817 ± 0.21. For QYRGCG, the amyloid nucleation score result was “inactive”.

As to QELQYLKAGSKF, the amyloid nucleation score result is “inactive”.

With MYFYYYGSRYYNNSDCLLSS, the amyloid nucleation score entry was “inactive”. In the case of SMYRYAKETT, the amyloid nucleation score entry is “inactive”.

As for NSNSGFLVSFLWLSFWNSIS, the amyloid nucleation score entry was “inactive”. The value for KCLLGLSLVRAKRSKLWMW was “inactive”; that for FYSLIMHLKRLSYVA was “inactive”.

Consider VHSGQLVTMGMYKLLLSSLC, for which the amyloid nucleation score entry is “inactive”.

RILALCGHRGNGLQGYILLD registered an amyloid nucleation score of 0.744 ± 0.13.

For YASFTK, the amyloid nucleation score result was “inactive”. In the case of VNFLSGWEPVIVKYHRSA, the amyloid nucleation score result was “inactive”. As for LFYLYF, the amyloid nucleation score entry is “inactive”.

As for FHTSKLHRFPHLK, the amyloid nucleation score entry is “inactive”. The same measure for VKSISNNSQLSSELN: “inactive”; for YVCSDSMLEARVREGTEYRS: -0.259 ± 0.98; for YEFATNAQESS: “inactive”. The same measure for NVIGPSNRVTSWMVKSMQMY: “inactive”. RMLLVEYCMFDFPDSFVRCN came in with an amyloid nucleation score of 0.131 ± 0.23.

In the case of HVPYIHRIFIWTYK, the amyloid nucleation score entry is “inactive”.

Regarding YVYESFGWVSGNFKVWF, the amyloid nucleation score entry was “inactive”. For RIYLA, the amyloid nucleation score entry is “inactive”. Take RWMLSDGFIMKRRTSFFNDM: the amyloid nucleation score entry is “inactive”. Take CMSDF: the amyloid nucleation score entry is “inactive”.

Turning to HSMNHFIWLVFKMVSYVACV, the amyloid nucleation score entry is “inactive”. The value for QKMCKPVFV was “inactive”; that for VLVNPILLPMPLQ was “inactive”; that for IWETVRIFCFINHAINCGVP was 2.35 ± 0.079.

NGVFWGRKSRSYEFWSFYFQ: the amyloid nucleation score was -0.052 ± 0.62. DNVSKSSIHTTLVLASFLCS: the amyloid nucleation score came out at 1.55 ± 0.11. The value for FFASRENPSFHFVSFWTYTW was “inactive”; that for SQVVDW was “inactive”; that for KPDVY was “inactive”. As to YVDLQPITREADDLRALTFM, the amyloid nucleation score entry was “inactive”. For the substance KSLTDHVNRSFLMVGVWMVK, the amyloid nucleation score entry is “inactive”.

As for LRGGKFNQYWIGRHGLSSVS, the amyloid nucleation score is -0.562 ± 1.1.

On to ARYKGWTHNWPINHLIFLNS, for which the amyloid nucleation score was -0.127 ± 1.1. CEWNERRRDGSSRNFDLLSQ returned an amyloid nucleation score of -0.045 ± 1.1. For YVIMAFLAV, the amyloid nucleation score entry was “inactive”.

Consider PDLRLMVVCASYPGSATRAM, for which the amyloid nucleation score result is “inactive”. Regarding APNFCWSLFYVDSNVEFERL, the amyloid nucleation score entry was “inactive”. For FVEYSSVQYAACNLDRLFLF, the amyloid nucleation score entry is “inactive”.

For KSALTRPDARPVRYRQPTHS, the amyloid nucleation score result is “inactive”. Take GPPCDFCIRVSVCYTGSVNW: the amyloid nucleation score turned out to be 0.466 ± 0.39. For the substance GFIGK, the amyloid nucleation score result was “inactive”. VAAMSVFSVGCLINIALRSN gave an amyloid nucleation score of 0.93 ± 0.2. The same measure for PFVFTLNDQCGGIRSLICVL: “inactive”; for EWKVLYFFGDAFRLFNRWSG: “inactive”; for TSRDQPRNVYVVVAVI: “inactive”.

As for HYYINNTWMFKVYNRLLKRR, the amyloid nucleation score was found to be 2.51 ± 0.057. Take ESLATNQVDMFSLSVRIFGP: the amyloid nucleation score entry was “inactive”.

In turn, FVTYDPYTFIDYFIVSHPRL gave an amyloid nucleation score of 0.61 ± 0.17.
